Experimental data: paper PMC9974466 (Proceedings of the National Academy of Sciences of the …, 2023)
Entries after “also recorded” stand apart in the source; their conditions may differ. Like-named read-outs stand apart in the source and are kept apart here. Each block holds one molecule with its values, some of them ahead of it. Ends that are not written are not given here.

Assays:
human PTHR1 = target: T1, human PTHR1 (Homo sapiens, UniProt Q03431); test: PTH-stimulated cAMP formation in GP2.3 reporter cells (Glosensor); type: cell-based; details: GP2.3 cells; synthetic peptides; mean ± SEM, n = 3; maximum luminescence 20 to 23 min
T1 construct: expressed in transfected cells; host or cells: GP2.3 (HEK293-derived)
T1 sequence (Q03431 27-593): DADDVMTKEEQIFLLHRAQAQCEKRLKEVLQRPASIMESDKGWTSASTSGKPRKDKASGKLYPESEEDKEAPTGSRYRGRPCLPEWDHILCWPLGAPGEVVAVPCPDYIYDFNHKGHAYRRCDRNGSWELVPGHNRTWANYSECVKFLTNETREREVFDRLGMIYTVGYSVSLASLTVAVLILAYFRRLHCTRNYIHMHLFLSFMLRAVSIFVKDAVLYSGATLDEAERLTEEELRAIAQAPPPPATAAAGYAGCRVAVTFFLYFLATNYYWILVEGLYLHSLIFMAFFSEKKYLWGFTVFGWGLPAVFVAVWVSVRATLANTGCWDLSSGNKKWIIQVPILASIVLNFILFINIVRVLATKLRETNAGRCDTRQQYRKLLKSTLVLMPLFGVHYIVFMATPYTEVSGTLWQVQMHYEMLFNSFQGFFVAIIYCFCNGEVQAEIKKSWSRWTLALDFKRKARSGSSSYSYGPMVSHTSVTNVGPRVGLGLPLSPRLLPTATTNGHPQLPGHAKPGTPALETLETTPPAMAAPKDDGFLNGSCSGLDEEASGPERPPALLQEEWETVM
Experimental: (§1) SGS-72 cells, i.e., human osteosarcoma SaOS-2 cells stably expressing the Glosensor cAMP reporter, were maintained in modified McCoy’s 5A medium [15% FBS, 1% penicillin/streptomycin, and 1% nonessential amino acids, as described ([29])]. GP2.3 cells, i.e., HEK293 cells stably expressing the human PTHR1 and the Glosensor cAMP reporter, were maintained in DMEM (10% FBS, 1% penicillin/streptomycin), as described ([24]). Cells were seeded into 96‐well white plates (40,000 cells/100µL/well); 24 to 48 h after confluency, the wells were rinsed with 100 µL carbon dioxide-independent culture medium (CIDB; Life Technologies) containing 0.1% bovine serum albumin (BSA), which was then replaced with 90 µL of luciferin (0.5 mM in CIDB) for 15 min before adding 10 µL of increasing concentrations of PTH analogs diluted in CIDB or 10 µL of CIDB, and then measuring cAMP‐dependent luminescence at 2‐min intervals using a PerkinElmer Envision plate reader (PerkinElmer), as described ([24]). […] GP2.3 cells were also used for the evaluation of CM from transfected COS-7 cells; PTH(1-84) served as control.

[1] = target: T2, human PTHR1 (SGS-72 cells, SaOS-2 derived) (Homo sapiens, UniProt Q03431); test: PTH-stimulated cAMP formation in SGS-72 reporter cells (Glosensor); type: cell-based; details: for Biological activity relative to corresponding PTH(1-34) analog (in words): compared with PTH(1-34) analogs
T2 construct: SGS-72 cells, i.e., human osteosarcoma SaOS-2 cells stably expressing the Glosensor cAMP reporter; endogenous in cells; host or cells: SGS-72 (human osteosarcoma SaOS-2-derived)
T2 sequence (Q03431 27-593): T1 sequence (Q03431 27-593)
Experimental: as §1
SGS-72 cells were used for assessing PTH-stimulated cAMP formation. 10 µL of increasing concentrations of [S1]PTH(−6 to +34) or [P1]PTH(−6 to +34) before and after incubation with furin were diluted in CIDB buffer.

[2] = test system: anti-[P1]PTH(−6 to +3)^Biotin antibody; test: Epitope characterization ELISA with anti-[P1]PTH(−6 to +3)^Biotin capture antibody; type: binding
From the text: For additional characterization of our anti-[P1]PTH(−6 to +3) antibody, we biotin-labeled this antibody for use as capture antibody (anti-[P1]PTH(−6 to +3)^Biotin antibody) in combination with the HRP-labeled detection antibody from the intact PTH assay (Immutopics) that is directed against PTH(13-34) (SI Appendix, Fig. S3).
(§2) pro[P1]PTH(−6 to +3) was conjugated to SulfoLink coupling gel via the C-terminal cysteine (PIERCE) for affinity purification of the rabbit antibodies, which were then HRP-labeled using EZ-Link Plus Activated Peroxidase Kit (Thermo Fisher Scientific), following the manufacturer’s protocol. The anti-pro[P1]PTH(−6 to +3) antibody was also conjugated to biotin using EZ-LinkTM Sulfo-NHS-LC-Biotinylation Kit (Thermo Fisher Scientific), following the manufacturer’s protocol, except using 40-fold instead of 20-fold excess of biotin. After biotin coupling, 15% of rabbit serum were added to the biotinylated antibody [anti-pro[P1]PTH(−6 to +3)^Biotin].
100 Defining the epitope of the antibody raised against [P1]PTH(-6 to +15) that was affinity purified with
101 immobilized [P1]PTH(-6 to +3).
102 The anti-[P1]PTH(-6 to +3) antibody was coupled to biotin (anti-[P1]PTH(-6 to +3)Biotin antibody) and
103 used as capture antibody in combination with the detection anti-PTH(13-34) antibody provided in
104 the intact PTH assay (Immutopics). Epitope of the affinity purified anti-[P1]PTH(-6 to +3)Biotin
105 antibody was partially defined by using [P1]PTH(-6 to +34) and [S1]PTH(-6 to +34), as well as
111 recognized by the anti-[P1]PTH(-6 to +3)Biotin antibody resides predominantly in the -6 to -4 region.
(1 picture or pasted object on this page, not shown here)

furin = target: T3, furin (Homo sapiens, UniProt P09958); test: Assessment of PTH analogs cleavage by furin (HPLC and MassSpec); type: biochemical; details: peptide 10 µg with furin 8U, HEPES buffer pH 7.4, RT, 60 min, final volume 30 µL; HPLC C18 4-76% ACN/0.05% TFA over 40 min and MassSpec
T3 construct: purchased New England Biolabs
T3 sequence (P09958 108-595 limits assumed): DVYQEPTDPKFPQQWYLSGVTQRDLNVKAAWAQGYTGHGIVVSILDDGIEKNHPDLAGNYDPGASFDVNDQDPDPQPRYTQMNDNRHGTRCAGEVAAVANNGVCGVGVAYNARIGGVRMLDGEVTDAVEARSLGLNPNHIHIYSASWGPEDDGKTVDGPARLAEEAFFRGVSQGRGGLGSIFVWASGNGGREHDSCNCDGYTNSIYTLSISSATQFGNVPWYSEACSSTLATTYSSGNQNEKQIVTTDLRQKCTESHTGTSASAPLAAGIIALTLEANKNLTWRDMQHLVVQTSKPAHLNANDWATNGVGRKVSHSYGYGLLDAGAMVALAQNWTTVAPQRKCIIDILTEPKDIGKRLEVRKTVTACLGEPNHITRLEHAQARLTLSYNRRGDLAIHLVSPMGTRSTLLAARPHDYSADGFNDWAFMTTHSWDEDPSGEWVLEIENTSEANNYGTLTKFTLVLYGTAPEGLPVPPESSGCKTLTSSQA
Experimental: [S1]PTH(−6 to +34) or [P1]PTH(−6 to +34) (10 µg/10 µL 10 mM acetic acid) was incubated with furin (8U/4 μL) (New England Biolabs) and furin buffer (50 mM HEPES (4-(2-hydroxyethyl)-1-piperazineethanesulfonic acid)–KOH (potassium hydroxide) (pH 7.4), 150 mM NaCl, 5 mM MgCl2, 16 mM imidazole, 2% glycerol, 0.15 mM EGTA, 500 μM ATP, 0.5% Triton-X100, 2 mM CaCl2, and 2 mM β-mercaptoethanol) (RT, 60 min; final volume 30 µL) (New England Biolabs), as recommended by the manufacturer, before adding EGTA (100 μM, 3 μL). In some experiments, 1 μL of the reaction buffer was replaced with the furin inhibitor Decanoyl-RVKR-CMK (Tocris Bioscience; 50 μM in water). To assess cleavage, 5 µL of furin-treated or untreated peptides (1.5 µg each) was loaded onto a C18 column (2.1 mm × 150 mm, Higgins Analytical, Inc.), and a gradient of 4 to 76% ACN/0.05% TFA over 40 min (200 µL/min) was applied. To determine the molecular weight, 10 µL of furin-treated or untreated peptides was loaded onto a C18 ZipTip (Millipore Corporation) that had been rinsed with 100% ACN/0.01% TFA (2 × 20 μL) followed by equilibration with H2O/0.01% TFA (5 × 20 μL). Peptide elution with 100% ACN/0.01% TFA was followed by speed vac and MassSpec analysis.

[3] = test system: anti-pro[P1]PTH^HRP antibody; test: pro[P1]PTH immunoassay with anti-pro[P1]PTH^HRP detection antibody; type: binding
From the text: To allow quantification of pro[P1]PTH in CM and in plasma of our patients with the homozygous P1 mutation, we replaced the detection antibody in an intact PTH assay (Immutopics) with a horseradish peroxidase (HRP)-labeled antibody raised against pro[P1]PTH(−6 to +15), which was affinity purified with pro[P1]PTH(−6 to +3) (anti-pro[P1]PTH^HRP antibody) (Materials and Methods).
as §2, with “+3)^Biotin]. […]” for “+3)^Biotin].”

[4] = anti-[P1]PTH(−6 to +3)^Biotin capture, anti-PTH(13-34) HRP detection, n = 2 to 4

- EC50 (human PTHR1): 3.2 ± 0.9 nM
- EC50 ([1]; synthetic peptides, mean ± SEM, n = 3 (Fig. 2B), read-out: EC50 for cAMP formation): 0.5 ± 0.3 nM
Molecule: CC[C@H](C)[C@H](NC(=O)[C@H](CCC(=O)O)NC(=O)[C@H](CO)NC(=O)[C@@H](NC(=O)[C@@H]1CCCN1)C(C)C)C(=O)N[C@@H](CCC(N)=O)C(=O)N[C@@H](CC(C)C)C(=O)N[C@@H](CCSC)C(=O)N[C@@H](Cc1c[nH]cn1)C(=O)N[C@@H](CC(N)=O)C(=O)N[C@@H](CC(C)C)C(=O)NCC(=O)N[C@@H](CCCCN)C(=O)N[C@@H](Cc1c[nH]cn1)C(=O)N[C@@H](CC(C)C)C(=O)N[C@@H](CC(N)=O)C(=O)N[C@@H](CO)C(=O)N[C@@H](CCSC)C(=O)N[C@@H](CCC(=O)O)C(=O)N[C@@H](CCCNC(=N)N)C(=O)N[C@H](C(=O)N[C@@H](CCC(=O)O)C(=O)N[C@@H](Cc1c[nH]c2ccccc12)C(=O)N[C@@H](CC(C)C)C(=O)N[C@@H](CCCNC(=N)N)C(=O)N[C@@H](CCCCN)C(=O)N[C@@H](CCCCN)C(=O)N[C@@H](CC(C)C)C(=O)N[C@@H](CCC(N)=O)C(=O)N[C@@H](CC(=O)O)C(=O)N[C@H](C(=O)N[C@@H](Cc1c[nH]cn1)C(=O)N[C@@H](CC(N)=O)C(=O)N[C@@H](Cc1ccccc1)C(N)=O)C(C)C)C(C)C [[P1]PTH(1-34)]

Molecule: PTH(2-34): synthetic amino-terminally shortened peptide (VSEIQLMHNLGKHLNSMERVEWLRKKLQDVHNF-NH2; UniProt P01270 33-65, looked up, fragment)
- Detection / cross-reactivity (in words) [2, 4]: only minimal cross-reactivity at very high concentrations

Molecule: PTH(3-34): synthetic amino-terminally shortened peptide (SEIQLMHNLGKHLNSMERVEWLRKKLQDVHNF-NH2; UniProt P01270 34-65, looked up, fragment)
- Detection / cross-reactivity (in words) [2, 4]: not detected at all

Molecule: PTH(4-34): synthetic amino-terminally shortened peptide (EIQLMHNLGKHLNSMERVEWLRKKLQDVHNF-NH2; UniProt P01270 35-65, looked up, fragment)
- Detection / cross-reactivity (in words) [2, 4]: not detected at all

- Biological activity relative to corresponding PTH(1-34) analog (in words) [1]: more than an order of magnitude lower
- Maximum cAMP formation relative to [S1]PTH(1-34) ([1]; furin-treated, maximum at 10^−7 M): 115.7 ± 8.6%
- EC50 ([1]; no furin, [S1] series (Fig. 3A), n = 2, top constrained to maximum cAMP by PTH(1-34) at 10^−7 M, read-out: EC50 for cAMP formation, without furin (curve top constrained)): 16.4 ± 4.7 nM
- EC50 ([1]; with Decanoyl-RVKR-CMK (3 μL of 50 μM), Fig. 3A, n = 2, top constrained to maximum cAMP by PTH(1-34) at 10^−7 M, read-out: Estimated EC50 for cAMP formation, with furin inhibitor): 272 ± 166 nM
Molecule: [S1]PTH(−6 to +34): synthetic proPTH(−6 to +34) with serine at position 1
- Biological activity relative to corresponding PTH(1-34) analog (in words) ([1]; listed as pro[S1]PTH(−6 to +34)): much less bioactivity than the corresponding PTH(1-34) analogs
- Cleavage by furin (furin): after incubation with furin, most of the peptide eluted at fraction #29 (55% ACN)
- Detection / cross-reactivity (in words) [2, 4]: detected equivalently
- Detection / cross-reactivity (in words) ([2]; anti-[P1]PTH(−6 to +3)^Biotin capture, anti-PTH(13-34) HRP detection, n = 2 to 4, listed as [S1]PTH(-6 to +34)): detected equally well
- Reduction of detection after incubation with furin ([2]; furin-treated): at least 10 fold

- Half maximum binding of the anti-pro[P1]PTH^HRP detection antibody ([3]; capture anti-PTH(39-84), HRP detection, CM standard): 1,032 pg/mL
- Half-maximal binding [2, 4]: 1,330 pg/mL
B1: pro[P1]PTH: mutant pro-hormone secreted by COS-7 cells expressing prepro[P1]PTH(1-84) and present in patients' plasma (protein, UniProt P01270 26-115, looked up, variant S1P)
pro-form: KSVKKRPVSEIQLMHNLGKHLNSMERVEWLRKKLQDVHNFVALGAPLAPRDAGSQRPRKKEDNVLVESHEKSLGEADKADVNVLTKAKSQ
modifications: pro-form
notes: mutant pro-hormone secreted by COS-7 cells expressing prepro[P1]PTH(1-84) and present in patients' plasma

B2: SVSEIQ … LMHNLGKHLNSMERVEWLRKKLQDVHNFVALGAPLAPRDAGSQRPRKKEDNVLVESHEKSLGEADKADVNVLTKAKSQ (protein, UniProt P01270 32-115, looked up)
Parathyroid hormone: SVSEIQLMHNLGKHLNSMERVEWLRKKLQDVHNFVALGAPLAPRDAGSQRPRKKEDNVLVESHEKSLGEADKADVNVLTKAKSQ
modifications: Parathyroid hormone
notes: Recombinant PTH(1-84) was from Chugai Pharmaceutical Co., Ltd
- Detection / cross-reactivity in pro[P1]PTH assay ([3]; vs. pro[P1]PTH, up to very high concentrations): barely detected; also recorded: minimal even at very high concentrations; also recorded: extremely low
